In patent publication US20140287471A1, “VARIANT CBH I POLYPEPTIDES WITH REDUCED PRODUCT INHIBITION” (BP CORPORATION NORTN AMERICA INC., priority 2011, published 2014):

B1: R268A/R411K: T. reesei CBH I with R268A and R411K substitutions (protein, UniProt P62694 18-513, looked up, variant R268A R411K)
Exoglucanase 1: QSACTLQSETHPPLTWQKCSSGGTCTQQTGSVVIDANWRWTHATNSSTNCYDGNTWSSTLCPDNETCAKNCCLDGAAYASTYGVTTSGNSLSIGFVTQSAQKNVGARLYLMASDTTYQEFTLLGNEFSFDVDVSQLPCGLNGALYFVSMDADGGVSKYPTNTAGAKYGTGYCDSQCPRDLKFINGQANVEGWEPSSNNANTGIGGHGSCCSEMDIWEANSISEALTPHPCTTVGQEICEGDGCGGTYSDNAYGGTCDPDGCDWNPYRLGNTSFYGPGSSFTLDTTKKLTVVTQFETSGAINRYYVQNGVTFQQPNAELGSYSGNELNDDYCTAEEAEFGGSSFSDKGGLTQFKKATSGGMVLVMSLWDDYYANMLWLDSTYPTNETSSTPGAVKGSCSTSSGVPAQVESQSPNAKVTFSNIKFGPIGSTGNPSGGNPPGGNRGTTTTRRPATTTGSSPGPTQSHYGQCGGIGYSGPTVCASGTTCQVLNPYYSQCL
B2: wild type T. reesei CBH I: wild type T. reesei CBH I (SEQ ID NO:2) (protein, listed as Trichoderma reesei)
chain: MYRKLAVISAFLATARAQSACTLQSETHPPLTWQKCSSGGTCTQQTGSVVIDANWRWTHATNSSTNCYDGNTWSSTLCPDNETCAKNCCLDGAAYASTYGVTTSGNSLSIGFVTQSAQKNVGARLYLMASDTTYQEFTLLGNEFSFDVDVSQLPCGLNGALYFVSMDADGGVSKYPTNTAGAKYGTGYCDSQCPRDLKFINGQANVEGWEPSSNNANTGIGGHGSCCSEMDIWEANSISEALTPHPCTTVGQEICEGDGCGGTYSDNRYGGTCDPDGCDWNPYRLGNTSFYGPGSSFTLDTTKKLTVVTQFETSGAINRYYVQNGVTFQQPNAELGSYSGNELNDDYCTAEEAEFGGSSFSDKGGLTQFKKATSGGMVLVMSLWDDYYANMLWLDSTYPTNETSSTPGAVRGSCSTSSGVPAQVESQSPNAKVTFSNIKFGPIGSTGNPSGGNPPGGNPPGTTTTRRPATTTGSSPGPTQSHYGQCGGIGYSGPTVCASGTTCQVLNPYYSQCL

Legend:
Format in all cases: biochemical
[1] = 4-MUL assay with and without cellobiose (Example 1)
[2] = Saccharification assay (bagasse assay) with and without β-glucosidase (Example 1); conditions: T. reesei CBH I variants; activity without β-glucosidase (BG) relative to with BG
Protocol: This assay measures the activity of CBH I on bagasse, a lignocellulosic substrate. Reactions were run in 10 ml vials with 5% dilute acid pretreated bagasse (250 mg solids per 5 ml reaction). Each reaction contained 4 mg CBH I enzyme/g solids, 200 mM MES pH 6, kanamycin, and chloramphenicol. Reactions were incubated at 35° C. in hybridization incubators (Robbins Scientific), rotating at 20 RPM. Time points were taken by transferring a sample of homogenous slurry (150 μl) into a 96-well deep well plate and quenching the reaction with stop buffer (450 μl of 500 mM sodium carbonate, pH 10). Time point measurements were taken every 24 hours for 72 hours.
(§1) Tolerance to cellobiose (or inhibition caused by cellobiose) was tested in two ways in the CBH I assays. A direct-dose tolerance method can be applied to all of the CBH I assays (i.e., 4-MUL, PASC, and/or bagasse assays), and entails the exogenous addition of a known amount of cellobiose into assay mixtures. A different indirect method entails the addition of an excess amount of β-glucosidase (BG) to PASC and bagasse assays (typically, 1 mg β-glucosidase/g solids loaded). BG will enzymatically hydrolyze the cellobiose generated during these assays; therefore, CBH I activity in the presence of BG can be taken as a measure of activity in the absence of cellobiose. Furthermore, when activity in the presence and absence of BG are similar, this indicates tolerance to cellobiose.

[3] = PASC assay, cellobiose dose-response (Example 1); conditions: FIG. 3
Protocol: This assay measures the activity of CBH I using PASC as the substrate. During the assay, the concentration of PASC is monitored by a fluorescent signal derived from calcofluor binding to PASC (ex/em 365/440 nm). The assay is initiated by mixing enzyme (15 μl) and reaction buffer (85 μl of 0.2% PASC, 200 mM MES, pH 6), and then incubating at 35° C. while shaking at 225 RPM. After 2 hours, one reaction volume of calcofluor stop solution (100 μg/ml in 500 mM glycine pH 10) is added and fluorescence read-outs obtained (ex/em 365/440 nm).
as §1

Row | Molecule | Tolerance to 250 mg/L cellobiose % Activity in 4-MUL Assay (+/−Cellobiose) ([1]; T. reesei CBH I variants, activity with 250 mg/L cellobiose relative to without cellobiose) | Tolerance to cellobiose accumulation % Activity in Bagasse Assay (+/−BG) [2] | % activity remaining in 4-MUL assay in the presence of cellobiose ([1]; T. reesei CBH I and R268/R411 variants, 250 mg/L cellobiose) | IC50 of cellobiose (PASC assay) [3] | cellobiose concentration at which inhibition starts (PASC assay) [3]
1 | B1 | 97% | 94% | – | – | –
2 | B2 | – | – | 23% | 3000 µg/mL | around 1 g/L
